Experimental data: article PMC7017424, “Effects of Substrate-Binding Site Residues on the Biochemical Properties of a Tau Class Glutathione S-Transferase from Oryza sativa” (Genes, 2019)
Positions count from the first letter of the chain named. Numbers in names are those of the source.

B1: OsGSTU17 (Oryza sativa Japonica Group; W161A) (protein)
chain: MAADKGVKVFGMWASPMAIRVEWALRLKGVDYEYVDEDLANKSEALLRHNPVTKKVPVLVHDGKPLAESTVIVEYIDEAWKHGYPIMPSDPFDRAQARFWARFAEEKCNAALYPIFMTTGEEQRKLVHEAQQCLKTLETALEGKKFFGGDAFGYLDIVTGAFAYWLPVIEEACGVEVVTDEALPLMKAWFDRVLAVDAVKAVLPPRDKLVALNKARREQILSA
notes: about 25 kDa subunit; dimeric enzyme; mutants L112A and W165A expressed at 20 °C
B2: OsGSTU17 (Oryza sativa Japonica Group; M17A) (protein)
chain: B1 chain with M17A, A161W
notes: as for B1
B3: OsGSTU17 (Oryza sativa Japonica Group; F162A) (protein)
chain: B1 chain with A161W, F162A
notes: as for B1
B4: OsGSTU17 (Oryza sativa Japonica Group; L112A) (protein)
chain: B1 chain with L112A, A161W
notes: as for B1
B5: OsGSTU17 (Oryza sativa Japonica Group; N109A) (protein)
chain: B1 chain with N109A, A161W
notes: as for B1

Legend:
OsGSTU17 = target: T1, OsGSTU17 (Oryza sativa, UniProt Q93WY5); assay: absorbance at […] nm, initial rate […] s, non-linear regression (Hyper32); assay type: biochemical; conditions: 1.0 mM GSH fixed, NBD-Cl 0.1-1.0 mM, 25 °C; apparent Km; wild-type value 'detected again', obtained from Yang et al. [31]; read-out: NBD-Cl / K m /; cited from earlier work
T1 construct: about 25 kDa subunit; dimeric enzyme; mutants L112A and W165A expressed at 20 °C
T1 sequence (Q93WY5 1-223): B1 chain with A161W

purified protein = substrate: O=[N+]([O-])c1ccc(Cl)c2nonc12; assay: purified protein; assay type: biochemical, Oryza sativa; conditions: 1.0 mM GSH fixed, NBD-Cl 0.1-1.0 mM, 25 °C, apparent Km

Row | Molecule | Km (OsGSTU17) | Km (purified protein; Km above tested range) | Vmax (purified protein; Km above tested range) | kcat (purified protein; Km above tested range) | kcat/Km (purified protein; Km above tested range) | Km (purified protein) | Vmax (purified protein) | kcat (purified protein) | kcat/Km (purified protein)
1 | O=[N+]([O-])c1ccc(Cl)c2nonc12 [NBD-Cl, 7-chloro-4-nitrobenzo-2-oxa-1,3-diazole] | 324 ± 16 µM |  |  |  |  |  |  |  | 
2 | B1 |  | 1.117 ± 0.022 mM | 0.594 µM/min/mg | 0.999 s⁻¹ | 894 M⁻¹ s⁻¹ |  |  |  | 
3 | B2 |  | 3.661 ± 0.843 mM | 0.83 µM/min/mg | 0.809 s⁻¹ | 221 M⁻¹ s⁻¹ |  |  |  | 
4 | B3 |  | 3.866 ± 0.871 mM | 0.869 µM/min/mg | 1.57 s⁻¹ | 407 M⁻¹ s⁻¹ |  |  |  | 
5 | B4 |  | 1.487 ± 0.079 mM | 0.896 µM/min/mg | 1.75 s⁻¹ | 1180 M⁻¹ s⁻¹ |  |  |  | 
6 | B5 |  |  |  |  |  | 0.781 ± 0.034 mM | 0.364 µM/min/mg | 0.266 s⁻¹ | 341 M⁻¹ s⁻¹
